Key:
[1] = target: T1, recombinant human heparanase (Homo sapiens, UniProt Q9Y251); experiment: ELISA binding to directly coated recombinant human heparanase
T1 construct: Heparanase 8 and 50 kDa sub-units were cloned into pacGP67 as Sma 1-EcoR1 fragments; made in house; host or cells: Hi5 insect cells, baculovirus (pFastBac Dual)
T1 sequence (Q9Y251 158-543 limits assumed): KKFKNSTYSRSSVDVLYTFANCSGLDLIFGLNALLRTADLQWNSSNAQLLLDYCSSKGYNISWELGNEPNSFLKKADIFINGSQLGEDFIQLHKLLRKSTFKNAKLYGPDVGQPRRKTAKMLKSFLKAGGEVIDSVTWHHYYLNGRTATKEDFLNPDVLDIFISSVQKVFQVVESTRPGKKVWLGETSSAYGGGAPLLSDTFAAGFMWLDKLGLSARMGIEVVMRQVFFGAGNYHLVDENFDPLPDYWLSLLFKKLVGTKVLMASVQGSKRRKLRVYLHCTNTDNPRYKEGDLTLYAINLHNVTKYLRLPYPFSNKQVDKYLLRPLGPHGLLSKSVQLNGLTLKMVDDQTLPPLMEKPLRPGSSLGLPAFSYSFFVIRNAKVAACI
T1 sequence (Q9Y251 36-109 limits assumed): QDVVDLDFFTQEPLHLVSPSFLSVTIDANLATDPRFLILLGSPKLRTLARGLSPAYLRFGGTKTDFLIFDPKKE
Experimental: (§1) Titres of antibodies from Campaigns 1 and 2 were determined in an ELISA. Costar 3368 medium binding plates were coated directly with recombinant human heparanase or plates were coated with Rabbit anti-heparanase antibody (Raybiotech, Cat. IP-14-155) to capture recombinant heparanase. Directly coated heparanase was detected in three separate plates by mouse (InSight Cat. INS-26-1-0000), goat (Santa Cruz, Cat. sc26136) or rabbit (Raybiotech, Cat. IP-14-155) anti-heparanase antibodies, and quantified using appropriate secondary antibodies. Antibody captured heparanase was detected using mouse anti-heparanase (Insight Cat. INS-26-1-0000). At the end of the immunisation program, fusions were performed using mouse myeloma cells and lymphocytes isolated from the spleens and lymph nodes of the immunised mice by means of electroporation, as described in Example 2.
(§2) Initial screening to detect antibodies binding to human heparanase in both direct coating and antibody capture ELISAs as described above identified 800 hybridomas for further testing; 535 IgG2 from Campaign 1 and 2 and 265 IgG4 from Campaign 2. Enzyme inhibition assays and cross species binding to cynomolgus and murine heparanase, in an antibody capture ELISA, identifed 12 antibodies that were taken forward for sub-cloning to provide purified antibodies for further analysis. Subsequently, confirmation of activity against human heparanase (FIGS. 3 and 4) and inhibition of recombinant cynomolgus and murine heparanase activity in the HS-cryptate degradation assay (FIG. 5a-c), together with sequence analysis, identified 8 antibodies that are described in the table below.

[2] = target: T2, recombinant heparanase captured with rabbit anti-heparanase antibody (Homo sapiens, UniProt Q9Y251); experiment: ELISA binding to antibody-captured heparanase; settings: antibody capture
T2 construct: Heparanase 8 and 50 kDa sub-units were cloned into pacGP67 as Sma 1-EcoR1 fragments; made in house; host or cells: Hi5 insect cells, baculovirus (pFastBac Dual)
T2 sequence (Q9Y251 158-543 limits assumed): T1 sequence (Q9Y251 158-543 limits assumed)
T2 sequence (Q9Y251 36-109 limits assumed): T1 sequence (Q9Y251 36-109 limits assumed)
Experimental: as §1, §2

human heparanase = target: T3, human heparanase (Homo sapiens, UniProt Q9Y251); experiment: Cross species capture ELISA, human heparanase; format: binding
T3 sequence (Q9Y251 36-543): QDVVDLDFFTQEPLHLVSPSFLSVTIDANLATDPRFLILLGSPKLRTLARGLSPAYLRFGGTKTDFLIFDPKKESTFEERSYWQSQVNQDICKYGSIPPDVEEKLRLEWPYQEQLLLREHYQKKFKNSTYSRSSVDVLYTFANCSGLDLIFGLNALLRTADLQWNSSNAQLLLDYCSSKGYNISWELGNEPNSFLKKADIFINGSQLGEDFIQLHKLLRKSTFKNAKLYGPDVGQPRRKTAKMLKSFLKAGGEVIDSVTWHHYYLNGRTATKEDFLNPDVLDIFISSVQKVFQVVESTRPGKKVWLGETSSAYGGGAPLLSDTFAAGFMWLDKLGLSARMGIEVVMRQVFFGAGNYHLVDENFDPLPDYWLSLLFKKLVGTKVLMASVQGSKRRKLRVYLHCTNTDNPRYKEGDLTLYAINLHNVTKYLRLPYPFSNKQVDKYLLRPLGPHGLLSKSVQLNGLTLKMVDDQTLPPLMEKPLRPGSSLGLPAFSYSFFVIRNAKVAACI
Experimental: (§3) Initially, cross species binding to human, murine and cynomolgus heparanase was determined in an ELISA assay in which heparanase was captured onto plates using a rabbit anti-heparanase antibody (Raybiotech, Cat. IP-14-155). Exhaustive supernatants were added to the plates at a final dilution of 1:5 and bound antibody detected with a rabbit anti-human IgG Fc.

cynomolgus heparanase = experiment: Cross species capture ELISA, cynomolgus heparanase; format: binding; settings: min 0.06, max 1.5 OD units
Experimental: as §3

[3] = test system: precursor (65 kDa) and active (50 kDa) heparanase; experiment: Immunoprecipitation and Western blotting of heparanase from cell lysates; format: binding, human; settings: 10 μg antibody, 400 μg lysate, MCF7 and MDA MB231 parental and heparanase transfected cells
Experimental: Briefly, protein lysates (400 μg in RIPA lysis buffer—137 mM NaCl, 20 mM Tris pH7.4, 10% glycerol, 1% Triton, 0.5% Sodium deoxycholate, 0.1% SDS, 2 mM EDTA, 1 mM dithiothreitol, 4 mM pefabloc, 10 mM glycerol-2-phosphate, 5 mM NaF and protease inhibitor cocktail) from both parental and heparanase transfected cells were incubated with 10 μg IgG2 control or anti-heparanase (10E9.1) antibodies for 1 hour at 4° C. Following immunoprecipitation with protein G agarose beads and washing with RIPA buffer, samples were separated on 10% bis-tris gels and transferred to nitrocellulose for Western blotting. Heparanase was detected using an anti-heparanase polyclonal antibody (Biochain Cat. No. Z5010104), that recognises both precursor and active heparanase.

[4] = test system: B16F10 AP3 murine melanoma cells; experiment: FACS binding to cell surface heparanase, B16F10 AP3; format: cell-based; settings: 5 or 10 μg per ml, 2 hrs at 37° C.
Experimental: Although heparanase is found as a secreted protein, a proportion of heparanase is found in conjunction with cell surface heparan sulfate. The ability of anti-human heparanase antibodies to bind to cell surface heparanase was tested in a FACS assay. HT1080 human fibrosarcoma cells, HCT116 human colorectal tumour cells and B16F10 AP3 murine melanoma cells were each seeded into 6-well plates and cultured for 48 hrs prior to the addition of anti-heparanase antibody 10E9.1 or control IgG2 antibody (Sigma Cat. No. 1504-1MG). Antibodies were added to the cells to a final concentration of 5 or 10 μg per ml and incubated with the cells for 2 hrs at 37° C. The cells were then washed with phosphate buffered saline (PBS) and harvested by incubation with trypsin. The cells were pelleted by centrifugation and resuspended in 0.5 ml PBS, 0.1% BSA containing 1/200 dilution of AlexaFluor 488 anti-human IgG. The cells were incubated for 1 hr at room temperature, washed with PBS/BSA, resuspended in PBS and analysed by FACS. […] The differences likely reflect a lower affinity for murine heparanase in addition to any differences in absolute heparanase expression.

B1: 10E9.1: fully human anti-heparanase monoclonal antibody, G2κ; VH SEQ ID NO 2, VL SEQ ID NO 4; ATCC PTA-9489 (antibody, listed as Homo Sapiens, V domains shown)
VH: QVQLVQSGAEVKKPGASVKVSCKVSGYSLTELSIHWVRQAPGKGLEWMGGFDPEDGEIIFAQKFQGRVTLTEDISLDTAYMEVSSLRSEDTAVYYCATEGHDSGDYVGYYYYGLDVWGQGTTVTVSS
VL: DIQMTQSPSSLSASVGDRVTITCRASQDIRNFLAWYQQKPGKLPKLLIYAASTLQSGVPSRFSGSGSGTDFTLTISSLQPEDVASYYCQSHNSVPFTFGPGTKVDIR
notes: fully human anti-heparanase monoclonal antibody, G2κ; ATCC PTA-9489
With B1 the “Binding to direct coated heparanase” value [1] was 0.2 OD units, the “Binding to captured heparanase” value [2] was 0.87 OD units and the “Binding to heparanase Human” value (human heparanase) was 0.63 OD units. The “Binding to heparanase Cyno” value (cynomolgus heparanase) was 1.4 OD units, the “Immunoprecipitation of heparanase from cell lysates” value [3] was “immunoprecipitation of both precursor and active forms of heparanase” and the “Binding to cell surface by FACS” value [4] was “bind to the cell surface of B16F10 AP3 murine melanoma cells”.
